The text below walks through data of publication PMC12312386, “Multiple transactivation domains of EZH2 bind to the TAZ2 domain of p300 and stimulate the acetyltransferase function of p300” (Biochemical Journal, 2025).

For series [1], the system named is FLAG-HA-tagged p300 catalytic core (aa 1035–1830 of p300). The series is described as follows: Histone acetyltransferase (HAT) assay, Western blot, recombinant nucleosome substrate. It counts as biochemical. The conditions noted are these: 1 μg p300 core, 2.5, 5 or 10 μg GST-tagged TADs, 1 μg nucleosome, 15 min. On the procedure: Histone acetyltransferase assay
For HAT assays, FLAG-HA-tagged p300 core (aa 1035–1830 of p300) in a pCDH vector was expressed in 293 T cells for two days. Cells were lysed in lysis buffer (50 mM Tris-HCl pH 7.5, 300 mM NaCl, 1.5 mM MgCl2, 1 mM EDTA, 1% Triton100, 10% glycerol, 1 mM PMSF, and protease inhibitors) and sonicated. Cell lysates were incubated with anti-Flag M2 beads (Sigma) at 4° for 4 h. The beads were then washed three times with buffer (50 mM Tris-HCl pH 7.5, 500 mM NaCl, 1.5 mM MgCl2, 0.2 mM EDTA, 0.1% NP40, 10% glycerol, and 1 mM PMSF), and the protein was eluted with elution buffer (50 mM Tris-HCl pH 7.5, 300 mM NaCl, 1 mM DTT, 10% glycerol, and 0.4 mg/ml Flag peptide).
GST-tagged EZH2TADs (aa 119–267), EZH1TADs (aa 120–280), F176A/F237A EZH1TADs (EZH1 2A), and F146A/F176A/F237A/Y257A EZH1TADs (EZH1 4A) constructs in the pGEX-6p-1 vector were transformed into RosettaTM2 (DE3) pLysS competent cells (Novagen). Protein production was induced by incubating with 0.4 mM IPTG at 16°C for 20 h in LB. Cell pellets were resuspended in lysis buffer (50 mM Tris-HCl pH 8.0, 300 mM NaCl, 1 mM PMSF, and 1 × cOmpleteTM EDTA-free Protease Inhibitor Cocktail) and lysed by sonication. Lysates were centrifuged at 17,000 g for 15 min, and supernatants were incubated with Glutathione Sepharose® 4B beads (Sigma) at 4°C for 2 h. Beads were washed with lysis buffer twice, and proteins were eluted with elution buffer (50 mM Tris-HCl pH 8.0, 150 mM NaCl, 10% glycerol, and 15 mg/ml GSH).
Purified FLAG-HA-tagged p300 catalytic core fragment (1 μg) was incubated with increasing amounts of GST-tagged EZH2TADs and GST-tagged EZH1TADs (2.5, 5, or 10 μg) and the nucleosome (1 μg) in HAT reaction buffer (50 mM Tris-HCl pH 8.0, 100 mM NaCl, 10% glycerol, 1 mM DTT, […], and 1× cOmplete EDTA-free Protease Inhibitor Cocktail) at 30°C for 15 min. Reactions were stopped by boiling at 95°C for 5 min in 2×SDS loading buffer, and samples were analyzed by SDS-PAGE and Western blot. […]
Background: Immunoblotting shows a protein as a band on a membrane.

The next series has as its system GST-p300TAZ2. As to the kind of experiment: Mass photometry (MP) of GST-p300TAZ2 with EZH2TAD constructs. As to conditions: 20 nM GST-p300TAZ2 alone. It counts as binding, human. On the procedure:
[37]. […] After induction with isopropyl b-D-1-thiogalactopyranoside (IPTG), harvesting, and lysis in buffer [50 mM Tris pH 7.0, 1 M NaCl, 5 mM dithiothreitol (DTT), 1 mM phenylmethanesulfonylfluoride (PMSF) and DNase] by sonication, the proteins were purified on glutathione agarose beads (Pierce) and eluted with buffer containing reduced L-glutathione (Fisher). The GST tag was either cleaved with TEV protease overnight at 22°C or kept intact during subsequent purification steps. […] The EZH2TAD1 ([…]) construct was generated by deletion using Q5 Hot Start High-Fidelity kit (NEB) and confirmed by DNA sequencing. Both constructs were expressed in E. coli Rosetta-2 (DE3) pLysS cells grown in LB media and induced at an OD600 of 0.6-0.8 with 1 mM IPTG for 16 h at 16°C. Cells were harvested by centrifugation, suspended in buffer (50 mM Tris pH 7.5, 500 mM NaCl, 1% CHAPS, 2 mM DTT, 1 mM PMSF, Roche cOmplete Protease Inhibitor Cocktail, and DNase), and lysed by sonication. […] When necessary, EZH2TAD constructs were further purified using a Superdex 200 Increase 10/300 GL column (Cytiva) with monitoring at 205 and 280 nm. […] To overcome the minimum size limit, a GST-fusion construct was used for one of the components in each sample. […] Ten microliter of each sample was loaded into the sample wells of the silicon cassettes assembled onto MassGlass UC coverslips (Refeyn, Ltd.). […]

Changes are numbered by the printed parent chain. Numbers in names are those of the source.

B1: EZH1 WT: GST-tagged EZH1TAD1-TAD2-TAD3 (aa 120–280) (protein)
chain: NFMVEDETVLCNIPYMGDEVKEEDETFIEELINNYDGKVHGEEEMIPGSVLISDAVFLELVDALNQYSDEEEEGHNDTSDGKQDDSKEDLPVTRKRKRHAIEGNKKSSKKQFPNDMIFSAIASMFPENGVPDDMKERYRELTEMSDPNALPPQCTPNIDGP
modifications: left off: GST, end not stated, kept
Turning to B1, in series [1] (100 mM acetyl-CoA, 50 mM Tris-HCl pH 8.0, 30°C, H3K18ac Western blot), the “H3K18 acetylation by p300 core” value is “dose-dependent increase in H3K18 and H3K27 acetylation”. In series [1] (100 mM acetyl-CoA, 50 mM Tris-HCl pH 8.0, 30°C, H3K27ac Western blot), the “H3K27 acetylation by p300 core” value is “dose-dependent increase in H3K18 and H3K27 acetylation”.

B2: EZH1 2A: GST-tagged F176A/F237A mutant of EZH1TAD1-TAD2-TAD3 (aa 120–280) (protein)
chain: B1 chain with F57A, F118A
modifications: left off: GST, end not stated, kept
In the case of B2, the “stimulation of p300 enzymatic activity” value in series [1] (mutants compared with EZH1 WT, 30°C, H3K18ac and H3K27ac Western blot) is “stimulation of the p300 enzymatic activity was decreased”.

B3: GST-p300TAZ2: GST-tagged human p300 TAZ2 domain, aa 1722–1812 (protein)
chain: AWTQSPGDSRRLSIQRCIQSLVHACQCRNANCSLPSCQKMKRVVQHTKGCKRKTNGGCPICKQLIALCCYHAKHCQENKCPVPFCLNIKQK
modifications: left off: GST, end not stated, kept
As to B3, the “oligomeric state in the apo-state” value in the series with GST-p300TAZ2 is “exists in a dimeric form”. Also, the “MP peak, apo GST-p300TAZ2” value with GST-p300TAZ2 (Figure 5a, room temperature, 50 mM Tris pH 7.5, 150 mM NaCl, 5 mM DTT) is listed as ~ 80 kDa.
